This passage reports Kd results from article PMC3166298, “Phosphorylation Alters the Interaction of the Arabidopsis Phosphotransfer Protein AHP1 with Its Sensor Kinase ETR1” (PLoS ONE, 2011).

What all share (conditions): both partners purified
Assay [1] concerns the target T1, ethylene receptor ethylene response 1 (ETR1), wild type (Arabidopsis, UniProt P49333 1-738).
T1 construct: Solubilised in beta-D-dodecylmaltoside; also called sensor kinase ETR1; AtETR1
T1 sequence (looked up): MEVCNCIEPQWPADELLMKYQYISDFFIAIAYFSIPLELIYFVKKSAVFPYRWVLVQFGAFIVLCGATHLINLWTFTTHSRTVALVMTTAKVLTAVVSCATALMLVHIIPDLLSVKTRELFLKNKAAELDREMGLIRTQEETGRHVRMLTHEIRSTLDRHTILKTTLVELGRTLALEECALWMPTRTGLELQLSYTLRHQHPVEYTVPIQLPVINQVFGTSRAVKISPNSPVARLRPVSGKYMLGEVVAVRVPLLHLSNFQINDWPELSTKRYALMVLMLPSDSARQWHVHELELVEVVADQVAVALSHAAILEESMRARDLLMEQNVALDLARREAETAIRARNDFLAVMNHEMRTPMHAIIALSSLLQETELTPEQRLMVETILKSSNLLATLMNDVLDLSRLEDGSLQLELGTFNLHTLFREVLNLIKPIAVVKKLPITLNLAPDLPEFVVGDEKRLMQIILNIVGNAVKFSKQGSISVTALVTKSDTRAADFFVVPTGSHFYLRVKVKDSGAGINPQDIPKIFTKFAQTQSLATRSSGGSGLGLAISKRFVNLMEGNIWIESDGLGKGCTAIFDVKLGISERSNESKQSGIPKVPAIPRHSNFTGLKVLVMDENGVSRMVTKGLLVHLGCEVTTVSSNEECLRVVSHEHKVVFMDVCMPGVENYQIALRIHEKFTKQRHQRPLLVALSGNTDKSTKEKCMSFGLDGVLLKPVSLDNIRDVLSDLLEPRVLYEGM
The assay is described as follows: fluorescence polarisation; control: wild type ETR1 and wild type AHP1-GFP with cyanide or ethephon but without the copper cofactor; same buffer. A general note: In fluorescence polarisation assays a small probe gives low polarisation when free and higher when bound to something large.

Assay [2] addresses T1, ethylene receptor ethylene response 1 …. Nature of the assay: fluorescence polarisation; wild type ETR1 pre-incubated with 0.1 mM copper chloride, added to wild type AHP1-GFP; with 100 uM ethephon; 50 mM Tris-HCl pH 7.5, 100 mM KCl, 0.1% beta-D-dodecylmaltoside, 0.002% PMSF.
For assay [3] the target is unchanged. Nature of the assay: fluorescence polarisation; wild type ETR1 pre-incubated with 0.1 mM copper chloride, added to wild type AHP1-GFP; with 100 uM potassium cyanide; 50 mM Tris-HCl pH 7.5, 100 mM KCl, 0.1% beta-D-dodecylmaltoside, 0.002% PMSF.

B1: AHP1-GFP(S65T), wild type Arabidopsis histidine-containing phosphotransfer protein 1 fused to green fluorescent protein (natural protein, UniProt Q9ZNV9 1-154, looked up)
chain: MDLVQKQKSLQDYTKSLFLEGILDSQFLQLQQLQDESNPDFVSQVVTLFFQDSDRILNDLSLSLDQQVVDFKKVDPHVHQLKGSSSSIGAQRVKNACVVFRSFCEQQNVEACHRCLQQVKQEYYLVKNRLETLFKLEQQIVASGGMIPAVELGF
notes: AHP1, Arabidopsis histidine-containing phosphotransfer protein 1; Theoretical molecular weight of AHP1-GFP printed as 45.6 kDa; also called wild type AHP1-GFP
As for B1, the values for the dissociation constant (Kd) in assay [1], in assay [2] and in assay [3] were 1.4 µM, 7.7 µM and 9 µM, respectively.

Broadly, the Kd is the free concentration of one partner at which half of the binding sites on the other are occupied at equilibrium, for simple one-to-one binding.
